# Experimental data published in doi:10.1101/2023.10.24.563883.
# Molecular target: LPHN2-ICL1-Nluc (UniProt O95490)
# Assay: FRET or BRET
# LPHN2-ICL1-Nluc, sequence (O95490 26-1459): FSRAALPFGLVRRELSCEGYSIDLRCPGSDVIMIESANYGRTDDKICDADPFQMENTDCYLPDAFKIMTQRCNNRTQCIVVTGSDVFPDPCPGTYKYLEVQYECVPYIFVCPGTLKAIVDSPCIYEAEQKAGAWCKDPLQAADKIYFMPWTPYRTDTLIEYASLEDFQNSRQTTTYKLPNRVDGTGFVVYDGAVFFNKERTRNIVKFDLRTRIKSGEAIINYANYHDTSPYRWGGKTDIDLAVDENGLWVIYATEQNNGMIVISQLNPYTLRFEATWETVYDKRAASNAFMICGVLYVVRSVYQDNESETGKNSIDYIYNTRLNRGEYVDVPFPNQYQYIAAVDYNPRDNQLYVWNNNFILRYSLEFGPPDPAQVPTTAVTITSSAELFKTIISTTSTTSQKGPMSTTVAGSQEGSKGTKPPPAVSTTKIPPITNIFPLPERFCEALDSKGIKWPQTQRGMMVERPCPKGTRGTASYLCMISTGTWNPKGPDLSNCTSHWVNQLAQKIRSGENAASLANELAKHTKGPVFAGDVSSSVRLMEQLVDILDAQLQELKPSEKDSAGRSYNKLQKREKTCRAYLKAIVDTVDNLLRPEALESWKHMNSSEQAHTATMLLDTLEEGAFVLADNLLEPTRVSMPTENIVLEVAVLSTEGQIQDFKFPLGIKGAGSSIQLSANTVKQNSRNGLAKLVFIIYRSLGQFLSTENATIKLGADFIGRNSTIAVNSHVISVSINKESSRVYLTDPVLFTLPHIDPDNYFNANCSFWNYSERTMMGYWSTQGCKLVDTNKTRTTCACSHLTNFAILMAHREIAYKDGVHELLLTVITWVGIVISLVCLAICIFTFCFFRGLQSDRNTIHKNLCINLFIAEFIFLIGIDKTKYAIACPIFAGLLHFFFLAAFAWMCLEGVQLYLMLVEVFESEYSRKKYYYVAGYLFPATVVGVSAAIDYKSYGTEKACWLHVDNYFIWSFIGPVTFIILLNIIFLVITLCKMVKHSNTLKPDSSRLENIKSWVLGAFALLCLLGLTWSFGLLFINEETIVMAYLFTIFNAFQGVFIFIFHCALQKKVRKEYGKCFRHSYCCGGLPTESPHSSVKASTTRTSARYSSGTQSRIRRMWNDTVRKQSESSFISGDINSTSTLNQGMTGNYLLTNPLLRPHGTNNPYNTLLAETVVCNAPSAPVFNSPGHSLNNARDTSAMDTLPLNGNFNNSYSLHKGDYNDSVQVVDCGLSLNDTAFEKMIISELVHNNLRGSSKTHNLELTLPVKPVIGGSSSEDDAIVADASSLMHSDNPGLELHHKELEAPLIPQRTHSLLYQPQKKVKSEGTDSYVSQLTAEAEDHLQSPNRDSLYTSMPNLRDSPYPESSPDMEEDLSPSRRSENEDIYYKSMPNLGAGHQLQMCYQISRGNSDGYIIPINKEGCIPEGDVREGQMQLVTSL
substance,measurement,value
TMC1-C-YFP (from UniProt Q8TDI8 1-760) (natural protein),EC50 of force for the increase of the BRET signal,5.2 pN
same,stoichiometry N (TMC1 per LPHN2),2
